Ends that are not written are not given here.
Target: α3β1 integrin on PC12 cells (rat (PC12 cells)) (UniProt P49134)
Test: cell-based or functional assay

Sequence of α3β1 integrin on PC12 cells (rat (PC12 cells)) (P49134 21-798): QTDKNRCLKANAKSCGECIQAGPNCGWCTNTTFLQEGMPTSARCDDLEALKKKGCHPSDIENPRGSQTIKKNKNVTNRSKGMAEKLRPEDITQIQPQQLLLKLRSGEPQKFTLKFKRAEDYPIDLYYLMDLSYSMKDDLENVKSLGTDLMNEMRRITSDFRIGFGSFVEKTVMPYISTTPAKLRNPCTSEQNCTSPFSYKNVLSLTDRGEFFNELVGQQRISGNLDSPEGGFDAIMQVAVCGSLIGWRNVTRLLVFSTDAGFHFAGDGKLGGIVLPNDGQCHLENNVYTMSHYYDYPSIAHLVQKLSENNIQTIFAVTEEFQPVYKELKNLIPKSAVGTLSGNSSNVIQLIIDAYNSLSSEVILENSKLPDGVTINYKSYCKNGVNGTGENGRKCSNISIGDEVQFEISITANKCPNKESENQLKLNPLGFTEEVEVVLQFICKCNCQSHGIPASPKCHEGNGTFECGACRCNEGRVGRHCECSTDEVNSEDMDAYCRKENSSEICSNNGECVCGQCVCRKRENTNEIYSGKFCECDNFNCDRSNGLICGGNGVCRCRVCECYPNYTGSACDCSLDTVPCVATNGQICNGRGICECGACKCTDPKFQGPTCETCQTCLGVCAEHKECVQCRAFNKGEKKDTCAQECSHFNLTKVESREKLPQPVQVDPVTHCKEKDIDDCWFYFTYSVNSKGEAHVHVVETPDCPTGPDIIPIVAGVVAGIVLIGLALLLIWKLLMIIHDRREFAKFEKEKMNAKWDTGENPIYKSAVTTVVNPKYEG

inhibition of PC12 cell adhesion to coated rLG3 (25 µg/mL) by soluble peptide: 40 % inhibition
B1: Ln2-LG3-P2 peptide (…) (peptide)
peptide: RNIPPFEGCIWN-NH2
